From the supplement of paper PMC9170038 come the findings set out here.

For this data set, the system named is MS2 coat protein. Description: apparent KD of MS2 coat protein; designed switch direction (-1 OFF switch, 1 ON switch): -1; higher = weaker reporter binding. In a few lines:
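Normalised cluster fluorescence was curve-fitted, and each design's median over clusters is its apparent KD. Before this, SNAP-549-labelled MS2 coat protein was titrated from 0.7 or 1.5 nM, doubling to 3 µM, over RNA switches transcribed on Illumina chips by stalled E. coli RNA polymerase. Titrations had no input, 200 uM small-molecule ligand, or an oligonucleotide input, and steps lasted 0.8–1.5 h (lowest) to 10–20 min (highest).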

Where [1] appears, read: input ligand: microRNA oligo, concentration not stated.
[2] abbreviates: Eterna round: R95, input ligand: microRNA oligo, concentration not stated.
The mark [3] stands for this setting: Eterna round: R95, input ligand: FMN 200 uM.
Where [4] appears, read: Eterna round: R95, input ligand: none.

As for “CCGGAAAUACAGGAUAUCGUAUCGGAUACGAUACGAGAAGGGUAUACAUGAGGAUCACCCAUGUGUCCUACCGG [Fiskers Ex 6 - 51] (Eterna round: R96, puzzle: Exclusion 6)”, the “apparent KD of MS2 coat protein” value is, setting by setting: (input ligand: FMN 200 uM) 30.1 nM; under setting [1], 20.2 nM; (input ligand: none) 26.3 nM. Regarding “CCGGAAAUACAGGAUAUCGUAUCGGAUACGAUACGAGAAGGGUAUACAUGAGGAUCACCCAUGUGUCCUACCGG [Fiskers Ex 6 - 51] (puzzle: Exclusion 6)”, the “apparent KD of MS2 coat protein” value under setting [2] was 23.6 nM.

Take “CCGGAAUAACAGGAUAUAGGAGUCGAUAGACACCUAGAAGGGUUGACAUGAGGAUCACCCAUGUGUCCUACCGG [Fiskers Ex 6 - 81] (puzzle: Exclusion 6)”: the “apparent KD of MS2 coat protein” value is 756 nM under setting [3], 728 nM under setting [2] and 595 nM under setting [4]. “CCGGGUCACGUAAGGAUAUCACGCGCAGACGCUAGUGAGAAGGUACAUGAGGAUCACCCAUGUUCCAUUCGCAG [BmEX4 C.5] (Eterna round: R97, puzzle: Brourd's mod of Exclusion 4)”: the “apparent KD of MS2 coat protein” value was 17.1 nM (input ligand: FMN 200 uM) and 13.8 nM (input ligand: none).

For “CCGGUUGGCGCAGGAUAUACAUGAGGAUCACCCAUGUUCAUGAGGAUCACCCAUGAGUUUUUGUUGUAGAAGGGUGGCCCGGCC [A second MS2 with the first and last base exchanged (less A)] (Eterna round: R96, puzzle: Exclusion NG 2)”, the “apparent KD of MS2 coat protein” value reads like this: (input ligand: FMN 200 uM) 23.8 nM; under setting [1], 15 nM; (input ligand: none) 29.4 nM. For “CCGUUGGUAGGAUAUCCAACGAUAUACUUGAGGAUCACCCAAGUCCGUAGGGCGUUCGAAGGAGAAGGGCUGAUGG [Zaisaat] (Eterna round: R97, puzzle: Exclusion 5)”, the “apparent KD of MS2 coat protein” value was 120 nM (input ligand: FMN 200 uM) and 108 nM (input ligand: none). Turning to “CCUACUCCCGUUAGGAUAUGUGGAGGCGUACCUCCGUAGAAGGAACAUGAGGAUCACCCAUGUCGCUGUCAUGC [Eternabot (L2) Solution 90] (Eterna round: R97, puzzle: Brourd's mod of Exclusion 4)”, the “apparent KD of MS2 coat protein” value (input ligand: FMN 200 uM) was 18.4 nM and the “apparent KD of MS2 coat protein” value (input ligand: none) came out at 19.9 nM. In the case of “CCUAGACAUGAGGAUCACCCAUGUGAGGAUAUGAUGCGAUCGUCGAAAGACGAUAGCAUCAGAAGGCACAUAUG [Fiskers Ex 1 - 5] (Eterna round: R96, puzzle: Exclusion 1)”, the “apparent KD of MS2 coat protein” value by setting is: (input ligand: FMN 200 uM) 130 nM; under setting [1], 34.2 nM; (input ligand: none) 37.6 nM. “CCUAGACAUGAGGAUCACCCAUGUGAGGAUAUGAUGCGAUCGUCGAAAGACGAUAGCAUCAGAAGGCACAUAUG [Fiskers Ex 1 - 5] (puzzle: Exclusion 1)”: the “apparent KD of MS2 coat protein” value under setting [2] is 36.9 nM.

For “CCUAUGUGAGGAUAUCACUGGUCUUCUCACUGGAUGAUUAGUGAGAAGGCACAUGAGGAUCACCCAUGUCGGUG [Ex4 - 3 - 51] (Eterna round: R96, puzzle: Exclusion 4)”, the “apparent KD of MS2 coat protein” value is 633 nM (input ligand: FMN 200 uM) and 482 nM under setting [1]. Turning to “CCUAUGUGAGGAUAUCACUGGUCUUCUCACUGGAUGAUUAGUGAGAAGGCACAUGAGGAUCACCCAUGUCGGUG [Ex4 - 3 - 51] (puzzle: Exclusion 4)”, the “apparent KD of MS2 coat protein” value under setting [2] was 524 nM. Still for that read-out and setting: next, “CCUCAGGCGGAGGAUAUCUAACAACAAUAACAAAGAGAAGGCCGCACAUGAGGAUCACCCAUGUGUAUGGGCCG [Bitierre] (puzzle: Exclusion 6)”: 13.1 nM.

As to “CCUCAGUAAGGAUAUCAGCUUAUAAAGUUGGUAAUGAGAGCUGAGAAGGUACAUGAGGAUCACCCAUGUUAGUU [JL Zatite mod 5] (puzzle: Exclusion 4)”, the “apparent KD of MS2 coat protein” value under setting [2] was 20.9 nM. “CCUCGACAUGAGGAUCACCCAUGUCAGGAUAUUGUGUUUCGGGUUUUUUACCUUUAGGCAAGAAGGGAUGUGUG [LRO-Excl1-16] (puzzle: Exclusion 1)”: the “apparent KD of MS2 coat protein” value under setting [2] was 15.8 nM. As for “CCUCGUAGGGAGGAUAUCCUUUAAAUUUAAGGAGGAGAAGGCUCAACAUGAGGAUCACCCAUGUAAAAUUUAAA [-17, -14.8 kcal, A 36%] (Eterna round: R97, puzzle: Exclusion 6)”, the “apparent KD of MS2 coat protein” value by setting is: (input ligand: FMN 200 uM) 109 nM; (input ligand: none) 78.7 nM.

On to “CCUCUACAUGAGGAUCACCCAUGUGAGGAUAUCUCGGAGCAGCCACUUAAGGCACUCCAGAGAAGGCACGUGUA [Oreresbe] (puzzle: Exclusion 1)”, for which, under setting [2], the “apparent KD of MS2 coat protein” value turned out to be 16.6 nM. Consider “CCUCUGGUAGGAUAUACUGGUGGCGGCAUUAUCGUGAAGGUACAUGAGGAUCACCCAUGUAGAAGGGCUCAAGU [Eternabot (L2) Solution 83] (Eterna round: R97, puzzle: Exclusion 2)”, for which the “apparent KD of MS2 coat protein” value was determined as 38.3 nM (input ligand: FMN 200 uM) and 37.1 nM (input ligand: none).

“CCUUAGUUAGGAUAUCGGAUUGUUCACGGUGCUCACCGGGUCGAGAAGGAACAUGAGGAUCACCCAUGUCACGA [Eternabot (L1) Solution 72] (Eterna round: R97, puzzle: Exclusion 4)”: the “apparent KD of MS2 coat protein” value came out at 60.1 nM (input ligand: FMN 200 uM) and 42.5 nM (input ligand: none). The like results for “CCUUGUCUGAAGGAUAUCCGCCUAAAAGGCAAGGGAGAAGGUUAGACAUGAGGAUCACCCAUGUGCCGGUGUAA [EX6 A.26] (Eterna round: R97, puzzle: Exclusion 6)” were, in that order, 21.7 nM and 25.1 nM. In the case of “CGACCCAUCAUAGGAUAUCACAGCACGGGAGAAAGUCUGAGGCGUCAACAUGAGGAUCACCCAUGUGAGAAGGAUGGUGGGCAG [Eternabot solution 17] (Eterna round: R96, puzzle: Exclusion NG 2)”, the “apparent KD of MS2 coat protein” value is 120 nM (input ligand: FMN 200 uM), 184 nM under setting [1] and 162 nM (input ligand: none). In the case of “CGACGACAUGAGGAUCACCCAUGUCAGGAUAUGGAAAACCAGAAUAUAUUUUAACUUUCCAGAAGGGACAGGUC [Eternabot (Original) Solution 1] (Eterna round: R97, puzzle: Exclusion 1)”, the “apparent KD of MS2 coat protein” value worked out at 19.6 nM (input ligand: FMN 200 uM) and 18.1 nM (input ligand: none). For “CGAGAGCGAGGAUAUACACAACUCCUCACUGUCAAGAAAGGACAUGAGGAUCACCCAUGUAGAAGGUGCAAAAC [Quries] (puzzle: Exclusion 2)”, the “apparent KD of MS2 coat protein” value worked out at 215 nM under setting [3], 125 nM under setting [2] and 120 nM under setting [4]. Turning to “CGAUAAUCCUAGGAUAUGCUAGACGAAAGUCUAGCAGAAGGAGGAACAUGAGGAUCACCCAUGUGUCCUAAUCG [Mat - Exclusion 6 - Eli Mod - D17] (Eterna round: R97, puzzle: Exclusion 6)”, the “apparent KD of MS2 coat protein” value by setting is: (input ligand: FMN 200 uM) 30.9 nM; (input ligand: none) 15.3 nM. “CGAUAGAUAGGAUAUACAUGAGGAUCACCCAUGUGAACGGGUAGAUUUGUCAACUGAAGUAGAAGGAUCGUCGC [Eternabot (L2) Solution 64] (Eterna round: R97, puzzle: Exclusion 3)”: the “apparent KD of MS2 coat protein” value is, setting by setting: (input ligand: FMN 200 uM) 132 nM; (input ligand: none) 761 nM. For “CGAUCCGUAGAGGAUAUAGGACGUCAUAGCGAUUUAGAAGGCUACACAUGAGGAUCACCCAUGUACAUUUCAUA [Eternabot (L1) Solution 60] (Eterna round: R97, puzzle: Exclusion 6)”, the “apparent KD of MS2 coat protein” value runs as follows: (input ligand: FMN 200 uM) 18.9 nM; (input ligand: none) 18.1 nM. In the same order, the values of “CGAUGAGGAGUGAGGAUAUCGUGUUCGAAAGAACGUGAGAAGGCACAUGAGGAUCACCCAUGUGAUCCUCAUGG [Omei Ex4B A23] (Eterna round: R97, puzzle: Brourd's mod of Exclusion 4)” are 1030 nM and 164 nM. The like results for “CGAUGAGGUGUGAGGAUAUCGUGUUCGAAAGAACGUGAGAAGGCACAUGAGGAUCACCCAUGUUAACCUUGUCG [Omei Ex4B A13] (Eterna round: R97, puzzle: Brourd's mod of Exclusion 4)” were, in that order, 11.5 nM and 13.2 nM. With “CGAUGCUCGUGUCCACAUGAGGAUCACCCAUGUCGAGUUAGCGAGGAUAUCGGUAACACAUAGUACGAGAAGGCGCGAACCUGA [Ex NG3 #27] (Eterna round: R96, puzzle: Exclusion NG 3)”, the “apparent KD of MS2 coat protein” value runs as follows: (input ligand: FMN 200 uM) 52.5 nM; under setting [1], 14.6 nM; (input ligand: none) 17.3 nM.

In the case of “CGAUGUUAUGUCAGGAUAUGCGUUGCGAAAGCGAUGCAGAAGGGACAUGAGGAUCACCCAUGUCCUAACCAUCG [Omei A 7] (puzzle: Brourd's mod of Exclusion 4)”, under setting [2], the “apparent KD of MS2 coat protein” value came out at 10.7 nM. For the sequence “CGCACCACAUGAGGAUCAAACAUGAGGAUCACCCAUGUAUAACAAGCUUUUUGCUCGUCUUAUAAAUAUGUGGUGCG [Electric Eye 3 - Jieux - Sensor, turn-off variant 1] (Eterna round: R97, puzzle: Sensor, turn-off variant 1)”, the “apparent KD of MS2 coat protein” value reads like this: (input ligand: FMN 200 uM) 13.9 nM; (input ligand: none) 14.2 nM.

With “CGCAUGUGAGGAUAUGUACUAGUUGAGCACAGUCAGCCAGAACAGAAGGCACAUGAGGAUCACCCAUGUGUACC [EX4 B.7] (Eterna round: R97, puzzle: Exclusion 4)”, the “apparent KD of MS2 coat protein” value runs as follows: (input ligand: FMN 200 uM) 154 nM; (input ligand: none) 22.3 nM. For “CGCCUGUUAGGAUAUUAGUAGUAGUCAGAAUAGACUAUUACUGAGAAGGGACAUGAGGAUCACCCAUGUUGGCG [Eli x4 4.12] (Eterna round: R97, puzzle: Exclusion 4)”, the “apparent KD of MS2 coat protein” value reads like this: (input ligand: FMN 200 uM) 22.2 nM; (input ligand: none) 18.8 nM.
